Consider seven molecules from patent publication US20180273595A1 (REGENTS OF THE UNIVERSITY OF MICHIGAN, published 2018).

In general, Kd refers to the constant that tells how readily two partners part at equilibrium.

Assay [1] concerns the target T1, wild-type ERG endogenous in HUVEC cells (human, UniProt P11308 1-479, limits assumed).
T1 construct: also called HUVEC ERG
T1 sequence (looked up): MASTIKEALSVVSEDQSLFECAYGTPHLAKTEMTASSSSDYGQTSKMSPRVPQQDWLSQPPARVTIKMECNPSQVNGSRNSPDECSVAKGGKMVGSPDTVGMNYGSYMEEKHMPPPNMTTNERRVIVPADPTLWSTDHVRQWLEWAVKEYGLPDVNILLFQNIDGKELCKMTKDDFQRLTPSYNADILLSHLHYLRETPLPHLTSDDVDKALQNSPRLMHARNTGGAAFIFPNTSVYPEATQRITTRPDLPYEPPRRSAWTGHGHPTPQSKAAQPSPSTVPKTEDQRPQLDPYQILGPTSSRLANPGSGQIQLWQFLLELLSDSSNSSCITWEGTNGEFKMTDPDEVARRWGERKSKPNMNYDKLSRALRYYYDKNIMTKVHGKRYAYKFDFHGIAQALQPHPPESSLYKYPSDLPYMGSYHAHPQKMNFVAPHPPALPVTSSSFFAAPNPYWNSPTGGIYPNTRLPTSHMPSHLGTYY
Put plainly: pull-down of whole cell lysate with biotinylated peptide, WB: αERG.

Assay [2] addresses T2, wild-type ERG endogenous in MS1 mouse endothelial cells (mouse, UniProt P81270 1-486, limits assumed).
T2 construct: also called mERG; MS1 ERG
T2 sequence (looked up): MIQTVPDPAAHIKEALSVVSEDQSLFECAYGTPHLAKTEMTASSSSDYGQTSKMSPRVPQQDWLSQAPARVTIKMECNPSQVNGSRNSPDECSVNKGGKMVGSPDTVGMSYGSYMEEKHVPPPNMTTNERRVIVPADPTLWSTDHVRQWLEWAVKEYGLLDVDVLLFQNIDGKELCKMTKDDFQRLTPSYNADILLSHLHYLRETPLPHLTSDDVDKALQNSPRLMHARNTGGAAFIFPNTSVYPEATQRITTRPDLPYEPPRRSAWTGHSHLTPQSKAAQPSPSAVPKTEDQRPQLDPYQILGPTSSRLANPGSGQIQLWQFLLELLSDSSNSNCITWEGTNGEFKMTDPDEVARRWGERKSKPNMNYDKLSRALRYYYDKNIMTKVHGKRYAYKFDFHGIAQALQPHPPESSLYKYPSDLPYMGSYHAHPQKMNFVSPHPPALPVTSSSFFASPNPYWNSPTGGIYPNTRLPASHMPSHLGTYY
Described as above.

The target of assay [3] is T3, recombinant His-tagged full-length ERG (UniProt P11308 1-479, biotinylated with NHS-PEG4 biotin for the OctetRED assays).
T3 construct: mature; Baculovirus expression in SF9 cells, Ni-NTA purified; also called wild-type ERG; wtERG; not shown: His tag
T3 sequence (looked up): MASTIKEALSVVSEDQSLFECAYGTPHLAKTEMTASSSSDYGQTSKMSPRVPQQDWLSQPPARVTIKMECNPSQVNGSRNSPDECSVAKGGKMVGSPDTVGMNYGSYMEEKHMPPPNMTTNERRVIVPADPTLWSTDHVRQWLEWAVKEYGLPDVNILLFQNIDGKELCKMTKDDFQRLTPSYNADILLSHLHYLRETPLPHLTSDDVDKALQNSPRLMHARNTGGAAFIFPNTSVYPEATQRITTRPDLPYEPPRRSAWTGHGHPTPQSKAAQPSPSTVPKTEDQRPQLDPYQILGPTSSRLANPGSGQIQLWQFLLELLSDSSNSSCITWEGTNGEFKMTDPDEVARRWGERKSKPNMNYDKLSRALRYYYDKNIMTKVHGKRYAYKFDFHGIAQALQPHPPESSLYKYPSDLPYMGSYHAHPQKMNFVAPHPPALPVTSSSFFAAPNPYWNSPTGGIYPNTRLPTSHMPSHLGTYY
The experiment in a line: pull-down of purified recombinant protein with biotinylated peptide, immunoblot. A general note: A western blot detects proteins with antibodies after separation by electrophoresis.

Assay [4] has as its target T4, TMPRSS2:ERG gene fusion product, endogenous in VCaP cells (UniProt P11308 33-479, limits assumed).
T4 construct: In cell lysates, in cells or in xenograft tumors; also called endogenous ERG; VCaP ERG
T4 sequence (looked up): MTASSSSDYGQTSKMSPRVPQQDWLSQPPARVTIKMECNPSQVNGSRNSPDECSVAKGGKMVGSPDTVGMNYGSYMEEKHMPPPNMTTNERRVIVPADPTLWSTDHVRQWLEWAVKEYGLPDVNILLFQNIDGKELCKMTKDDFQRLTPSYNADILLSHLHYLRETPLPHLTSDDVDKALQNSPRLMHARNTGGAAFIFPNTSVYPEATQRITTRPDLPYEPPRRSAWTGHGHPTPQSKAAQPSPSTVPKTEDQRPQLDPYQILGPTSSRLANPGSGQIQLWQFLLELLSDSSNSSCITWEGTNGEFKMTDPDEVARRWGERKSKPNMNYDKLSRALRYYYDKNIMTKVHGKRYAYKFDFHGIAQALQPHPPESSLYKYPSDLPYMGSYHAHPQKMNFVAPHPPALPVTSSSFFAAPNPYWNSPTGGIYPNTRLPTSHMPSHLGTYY
Put plainly: pull-down of VCaP lysate with biotinylated peptide, ERG immunoblot.
Protocol: Approximately 1 mg of soluble VCaP cell lysate prepared in RIPA buffer (Invitrogen) was incubated with varying amounts of biotinylated peptides for 2 hours at 4° C. HaloLink agarose beads (20 μl) were added to the peptide-lysate mixture and incubated for an additional 4 hours. Beads were then pelleted by centrifugation, washed three times in PBS-T and loaded into an SDSPAGE gel followed by Western blot analysis. Total VCaP cell lysate was loaded for positive control.

Assay [5] concerns the target T5, endogenous ETV1 protein of LNCaP cells (UniProt P50549 1-477, limits assumed).
T5 sequence (looked up): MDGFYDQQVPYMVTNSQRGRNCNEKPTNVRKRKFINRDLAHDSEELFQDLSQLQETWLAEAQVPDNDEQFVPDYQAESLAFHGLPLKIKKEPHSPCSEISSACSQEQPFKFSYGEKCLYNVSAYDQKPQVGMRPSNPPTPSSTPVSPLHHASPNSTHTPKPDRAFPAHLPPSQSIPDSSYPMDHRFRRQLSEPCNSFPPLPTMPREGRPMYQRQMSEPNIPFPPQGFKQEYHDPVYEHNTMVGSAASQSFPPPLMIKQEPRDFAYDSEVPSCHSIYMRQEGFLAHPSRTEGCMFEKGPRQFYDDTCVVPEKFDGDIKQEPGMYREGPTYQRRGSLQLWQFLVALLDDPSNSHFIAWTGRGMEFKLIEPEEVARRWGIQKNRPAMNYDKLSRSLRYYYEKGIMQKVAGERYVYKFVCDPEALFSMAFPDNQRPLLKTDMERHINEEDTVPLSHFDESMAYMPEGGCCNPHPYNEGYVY
Put plainly: pull-down of cell lysate with biotinylated peptide, immunoblot αETV1.

The target of assay [6] is T3, recombinant His-tagged full-length ERG. The experiment in a line: OctetRED biolayer interferometry, biotinylated ERG on streptavidin sensors, peptide in solution. For orientation: Biolayer interferometry detects binding as a change in optical thickness at a sensor tip.
Protocol: (§1) The interaction coefficients between ERG and synthetic peptides or peptidomimetics were determined by biolayer interferometry technology using the Octet Red system (ForteBio). Purified ERG and GUS proteins were biotinylated by EZLink NHS-PEG4 Biotinylation Kit (Thermo Scientific) following the manufacturer's protocol and any unincorporated biotin was removed from the reactions with Zeba 2 ml desalt columns (Thermo). Biotinylated proteins (500 μg/ml) were then incubated with super streptavidin biosensors in binding buffer (20 mM HEPES pH 7.4, 150 mM NaCl), blocked with 10 μg/ml biocytin and washed three times in binding buffer. Peptides were serially diluted in binding buffer, mixed with the protein-coupled biosensors and peptidomimetic:protein association/dissociation was monitored for 10 min at 25° C. Nonspecific binding from the signal obtained from peptidomimetic:GUS interactions was subtracted from that of peptidomimetic:ERG interactions and baseline signal drift was controlled by monitoring immobilized ERG without peptide. Octet Red analysis software was used to analyze the data.
The target in assay [7] is T6, Halo-tagged full-length ERG (UniProt P11308 1-479).
T6 construct: mature; In vitro transcription/translation in wheat germ lysate; also called Halo-ERG fusion protein; not shown: HaloTag (about 35 kDa), N-terminal
T6 sequence (looked up): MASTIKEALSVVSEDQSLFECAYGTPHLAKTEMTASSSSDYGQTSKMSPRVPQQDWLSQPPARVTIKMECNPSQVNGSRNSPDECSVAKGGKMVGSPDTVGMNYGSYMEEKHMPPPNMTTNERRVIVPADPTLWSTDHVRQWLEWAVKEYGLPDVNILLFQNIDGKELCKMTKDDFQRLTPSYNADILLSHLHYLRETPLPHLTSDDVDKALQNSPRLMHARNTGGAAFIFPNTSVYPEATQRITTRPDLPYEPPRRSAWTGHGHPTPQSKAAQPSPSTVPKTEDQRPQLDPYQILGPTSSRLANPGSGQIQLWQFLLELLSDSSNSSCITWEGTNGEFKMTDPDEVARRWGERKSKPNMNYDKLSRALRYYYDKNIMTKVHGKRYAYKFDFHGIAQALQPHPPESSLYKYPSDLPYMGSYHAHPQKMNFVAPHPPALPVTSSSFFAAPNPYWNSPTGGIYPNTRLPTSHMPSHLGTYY
Put plainly: competitive pull-down: Halo-ERG with purified DNA-PKcs or GST-AR and peptide, HaloLink beads, immunoblot.

The target of assay [8] is T7, Halo-tagged full-length ETV1 (UniProt P50549 1-477).
T7 construct: mature; not shown: Halo-tag at the N-terminus
T7 sequence (looked up): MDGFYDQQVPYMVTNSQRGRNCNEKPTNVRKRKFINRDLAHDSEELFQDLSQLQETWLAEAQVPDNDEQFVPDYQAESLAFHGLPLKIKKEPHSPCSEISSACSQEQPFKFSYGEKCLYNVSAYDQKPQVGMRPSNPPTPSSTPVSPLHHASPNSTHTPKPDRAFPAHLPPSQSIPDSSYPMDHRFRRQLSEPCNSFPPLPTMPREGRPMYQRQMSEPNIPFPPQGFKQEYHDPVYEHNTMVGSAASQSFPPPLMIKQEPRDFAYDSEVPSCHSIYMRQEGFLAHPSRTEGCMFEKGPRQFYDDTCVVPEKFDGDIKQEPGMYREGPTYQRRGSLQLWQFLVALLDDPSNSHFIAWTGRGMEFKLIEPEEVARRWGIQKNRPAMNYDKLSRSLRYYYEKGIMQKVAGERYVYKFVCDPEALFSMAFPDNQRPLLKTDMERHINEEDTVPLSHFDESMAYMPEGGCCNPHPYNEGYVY
The experiment in a line: pull-down of in vitro translated Halo-tagged protein with biotinylated peptide, anti-Halo immunoblot [cont'd].

The target in assay [9] is T8, Halo-tagged full-length Fli1 (UniProt Q01543 1-452).
T8 construct: mature; not shown: Halo-tag at the N-terminus
T8 sequence (looked up): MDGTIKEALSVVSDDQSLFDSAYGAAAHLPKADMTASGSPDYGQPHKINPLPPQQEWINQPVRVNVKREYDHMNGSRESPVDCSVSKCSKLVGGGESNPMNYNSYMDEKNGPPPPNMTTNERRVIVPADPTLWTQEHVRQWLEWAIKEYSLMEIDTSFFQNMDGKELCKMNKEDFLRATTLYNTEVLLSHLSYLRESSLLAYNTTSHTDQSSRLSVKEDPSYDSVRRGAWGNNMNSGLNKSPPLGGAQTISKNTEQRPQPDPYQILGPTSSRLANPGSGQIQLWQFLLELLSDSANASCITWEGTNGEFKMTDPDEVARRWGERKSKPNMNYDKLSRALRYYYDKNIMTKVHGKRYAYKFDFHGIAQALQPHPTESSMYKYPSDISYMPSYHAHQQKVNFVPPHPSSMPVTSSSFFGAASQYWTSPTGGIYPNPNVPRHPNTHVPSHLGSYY
The description is as above.

Assay [10] has as its target T6, Halo-tagged full-length ERG. Described as above.
The target in assay [11] is T9, Halo-tagged full-length ETS1 (UniProt P14921 1-441).
T9 construct: mature; not shown: Halo-tag at the N-terminus
T9 sequence (looked up): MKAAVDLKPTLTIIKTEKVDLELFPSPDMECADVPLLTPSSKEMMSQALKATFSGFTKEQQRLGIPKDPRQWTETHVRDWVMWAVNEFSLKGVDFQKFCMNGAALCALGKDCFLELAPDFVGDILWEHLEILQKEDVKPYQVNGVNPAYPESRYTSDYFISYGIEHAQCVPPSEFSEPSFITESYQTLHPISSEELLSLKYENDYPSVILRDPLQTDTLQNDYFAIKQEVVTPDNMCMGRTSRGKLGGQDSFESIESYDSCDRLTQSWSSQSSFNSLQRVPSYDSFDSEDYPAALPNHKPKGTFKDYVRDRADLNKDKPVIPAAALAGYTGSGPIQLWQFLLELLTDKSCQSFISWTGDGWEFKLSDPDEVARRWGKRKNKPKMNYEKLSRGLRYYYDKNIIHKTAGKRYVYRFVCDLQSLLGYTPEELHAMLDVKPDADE
The assay is described as above.

For assay [12], the target named is T10, Halo-tagged full-length ETV6 (UniProt P41212 1-452).
T10 construct: mature; not shown: Halo-tag at the N-terminus
T10 sequence (looked up): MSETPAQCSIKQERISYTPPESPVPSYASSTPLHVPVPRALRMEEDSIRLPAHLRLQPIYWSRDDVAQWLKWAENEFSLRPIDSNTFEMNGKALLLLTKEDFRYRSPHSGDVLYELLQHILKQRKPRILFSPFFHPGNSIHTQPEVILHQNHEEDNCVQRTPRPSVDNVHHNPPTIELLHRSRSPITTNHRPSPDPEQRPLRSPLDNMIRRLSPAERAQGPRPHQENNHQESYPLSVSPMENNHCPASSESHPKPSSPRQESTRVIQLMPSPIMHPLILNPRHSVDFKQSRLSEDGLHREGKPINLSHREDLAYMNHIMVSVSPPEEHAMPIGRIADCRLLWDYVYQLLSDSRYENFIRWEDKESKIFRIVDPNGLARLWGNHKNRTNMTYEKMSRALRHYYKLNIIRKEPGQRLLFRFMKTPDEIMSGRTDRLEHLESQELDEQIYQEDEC
The assay is described as above.

Assay [13] has as its target T3, recombinant His-tagged full-length ERG. Put plainly: Kd table of synthetic peptides on ERG; assay not given.
The target is the same in assay [14]. Put plainly: binding assay of capped EIP1 variants (FIG. 13); capped EIP1, L5E.
Assay [15] has the same target. The experiment in a line: binding assay of capped EIP1 variants (FIG. 13); capped EIP1, Y4E.
Assay [16] shares this target. Put plainly: binding assay of capped EIP1 variants (FIG. 13); capped EIP1, Y4K.
Assay [17] shares this target. Put plainly: OctetRED biolayer interferometry, steady-state analysis.
Protocol: as §1

Where no end group is shown, it is not given here. The star is where a group is joined. Biotin = O=C1N[C@H]2[C@H](CS[C@H]2CCCCC(=O)*)N1

For the molecule LPPALFT (also: biotin, position not given here, also called biotin-muEIP1) [biotinylated muEIP1 peptide], the binding result was “no binding” in assay [1]; “no binding” in assay [2]; “no binding” in assay [3]; “no binding (tested: 20 µM)” in assay [4]; “no binding (tested: 50 µM)” in assay [5].
With LPPALFT (Alanine substitution control) [muEIP1 synthetic peptide LPPALFT], the results for the binding result in assay [6] and in assay [7] were “no binding (tested: 20 µM)” and “no binding (tested: 50 µM)”, respectively.

B1: Biotin-HSKINPT (peptide)
peptide: Biotin-HSKINPT
notes: Control of the pull-down with Biotin-LSFGSLP; also called control peptide Biotin-HSKINPT
With B1, the binding result in assay [8], in [9], in assay [10], in [11] and in [12] was “no binding” throughout.
As to Ac-LPPYEFT-NH2 [capped EIP1 with L at position five mutated to E], the Kd was 5.09 µM in assay [13] and 5.1 µM in assay [14].
On to Ac-LPPELFT-NH2 [capped EIP1 with Y at position four mutated to E], for which the Kd in assay [13] and in assay [15] was 3.6 µM throughout.
Take Ac-LPPKLFT-NH2 [capped EIP1 with Y at position four mutated to K]: the dissociation constant (Kd) in assay [13] was found to be 4.27 µM; in assay [16] it was 4.3 µM.
As for LPPTFLY [scrambled peptide LPPTFLY], the binding result in assay [17] is “no binding (tested: 20 µM)”.
